# From article PMC2064313 (The Journal of Cell Biology, 2006)
# What was measured:
# [1] = molecular target: T1, MBP-tagged FRLα C terminus (residues 612–1,094) (UniProt Q9JL26-1 612-1094); assay: pull-down
# T1 sequence: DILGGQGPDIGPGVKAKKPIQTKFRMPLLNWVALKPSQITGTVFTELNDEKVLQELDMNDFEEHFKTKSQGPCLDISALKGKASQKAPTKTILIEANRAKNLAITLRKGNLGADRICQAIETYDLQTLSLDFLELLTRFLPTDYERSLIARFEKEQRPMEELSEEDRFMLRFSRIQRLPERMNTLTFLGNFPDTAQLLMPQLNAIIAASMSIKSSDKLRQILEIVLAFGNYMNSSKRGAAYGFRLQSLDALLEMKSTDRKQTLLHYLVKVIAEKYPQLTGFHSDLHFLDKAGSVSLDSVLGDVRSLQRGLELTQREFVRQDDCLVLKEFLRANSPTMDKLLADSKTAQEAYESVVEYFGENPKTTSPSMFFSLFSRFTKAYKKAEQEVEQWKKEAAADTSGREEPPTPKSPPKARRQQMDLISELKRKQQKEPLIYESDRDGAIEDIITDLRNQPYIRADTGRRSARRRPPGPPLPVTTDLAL
# [2] = molecular target: T2, FRLα C terminus (residues 612–1,094), untagged (UniProt Q9JL26-1 612-1094); assay: pull-down
# T2 sequence: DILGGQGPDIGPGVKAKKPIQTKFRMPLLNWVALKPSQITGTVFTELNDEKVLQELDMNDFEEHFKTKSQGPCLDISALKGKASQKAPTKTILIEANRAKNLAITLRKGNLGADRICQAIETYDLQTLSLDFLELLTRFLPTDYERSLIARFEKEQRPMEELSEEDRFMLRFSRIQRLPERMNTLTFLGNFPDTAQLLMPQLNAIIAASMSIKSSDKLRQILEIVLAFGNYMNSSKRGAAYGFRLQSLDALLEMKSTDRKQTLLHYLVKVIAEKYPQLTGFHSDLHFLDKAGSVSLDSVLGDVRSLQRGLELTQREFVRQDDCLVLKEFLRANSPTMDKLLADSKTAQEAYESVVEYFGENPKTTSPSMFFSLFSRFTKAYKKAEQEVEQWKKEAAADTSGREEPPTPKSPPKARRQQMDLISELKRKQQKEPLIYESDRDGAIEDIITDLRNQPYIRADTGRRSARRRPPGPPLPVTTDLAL
Binder,binding result [1],binding result [2]
GST-tagged FRLα N terminus (residues 1–450) (domain or fragment) MGNAAGSAEQPAGPTASPPKQPAVPKQPMPAAGELEERFTRVLNCMNLPPDKVQLLSQYDNEKKWELICDQERFQVKNPPAAYIQKLKSYLDTGGVSRKVASDWMSNLGFKRRVQESTQVLRELETSLRTNHIGWVQEFLNEENRGLDVLLEYLAFAQCSVAYDMESTDSVASGAEKSKPLDQSVEDLSKAPPSSVPKSRLTIKLTPAHSRKALRNSRIVSQKDDVHVCIMCLRAIMNYQSGFSLVMNHPACVNEIALSLNNKSPRTKALVLELLAAVCLVRGGHDIILAAFDNFKEVCGEQHRFEKLMEYFRHEDSNIDFMVACMQFINIVVHSVENMNFRVFLQYEFTHLGLDLYLERLRLTESDKLQVQIQAYLDNVFDVGTLLEETETKNAVLEHMEELQEQVATLTERLRDTENDSMAKIAELEKQLSQARKELETLRERFSEST,binds,binds
GST–N terminus T126D of FRLα (residues 1–450) (domain or fragment) MGNAAGSAEQPAGPTASPPKQPAVPKQPMPAAGELEERFTRVLNCMNLPPDKVQLLSQYDNEKKWELICDQERFQVKNPPAAYIQKLKSYLDTGGVSRKVASDWMSNLGFKRRVQESTQVLRELEDSLRTNHIGWVQEFLNEENRGLDVLLEYLAFAQCSVAYDMESTDSVASGAEKSKPLDQSVEDLSKAPPSSVPKSRLTIKLTPAHSRKALRNSRIVSQKDDVHVCIMCLRAIMNYQSGFSLVMNHPACVNEIALSLNNKSPRTKALVLELLAAVCLVRGGHDIILAAFDNFKEVCGEQHRFEKLMEYFRHEDSNIDFMVACMQFINIVVHSVENMNFRVFLQYEFTHLGLDLYLERLRLTESDKLQVQIQAYLDNVFDVGTLLEETETKNAVLEHMEELQEQVATLTERLRDTENDSMAKIAELEKQLSQARKELETLRERFSEST,–,binds
